Laboratory results: article PMC9956121
Substitutions are numbered along the chain they refer to. Numbers in names are those of the source.

B1: human TAPBPR (TAP binding protein, related), luminal domain R105K; K211R; R270Q (protein)
chain: KPHPAEGQWRAVDVVLDCFLAKDGAHRGALASSEDRARASLVLKQVPVLDDGSLEDFTDFQGGTLAQDDPPIIFEASVDLVQIPQAEALLHADSSGKEVTCEISKYFLQMTETTVKTAAWFMANMQVSGGGPSISLVMKTPRVTKNEALWHPTLNLPLSPQGTVRTAVEFQVMTQTQSLSFLLGSSASLDCGFSMAPGLDLISVEWRLQHRGRGQLVYSWTAGQGQAVRKGATLEPAQLGMARDASLTLPGLTIQDEGTYICQITTSLYQAQQIIQLNIQASPKVRLSLANEALLPTLICDIAGYYPLDVVVTWTREELGGSPAQVSGASFSSLRQSVAGTYSISSSLTAEPGSAGATYTCQVTHISLEEPLGASTQVVPPERR
B2: human TAPBPR (TAP binding protein, related), luminal domain K211R; R270Q (protein)
chain: B1 chain with K105R
B3: human TAPBPR (TAP binding protein, related), luminal domain S104F; K211L; R270Q (protein)
chain: B1 chain with S104F, K105R, R211L

What was measured:
[1] = biological target: acetyl-6-formylpterin-loaded MR1 C262S/hβ2m, P61769; experiment: SPR; settings: chain shown with the change;; parent: est. 2.0; read off a plot
[2] = biological target: peptide-loaded HLA-A*02:01/hβ2m (photolabile peptide KILGFVFJV); experiment: SPR; settings: chain shown with the change;; parent: est. 0.98; read off a plot

Row | Binder | Kd (Log10 KD (µM)) [1] | Kd (Log10 KD (µM)) [2]
1 | B1 | 1.8 | –
2 | B2 | – | 0.1
3 | B3 | – | 0.09
